# Measured values published in the supplement of paper PMC10724198.
# ± gives the standard deviation of the averaged measurements.
# System: Saccharomyces cerevisiae
# Experiment: protein stability index of tFT-peptide fusion (C-terminal peptide) (PSI (0-1 scale)); higher = more stable (slower turnover)
# Settings: genetic background: wild type; temperature: 37 C
# Method: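 MPS profiling in S. cerevisiae of the tFT-X12 degron library: putative degron peptides plus stable controls, 12 aa, fused to the C-terminus of a sfGFP-mCherry timer. Cells are FACS-sorted into 8 mCherry/sfGFP bins and deep-sequenced. PSI runs from 0 (unstable) to 1 (stable). Backgrounds are wild type, das1Δ and doa10Δ at 30 °C, and wild type, das1Δ, cdc34-1 and cdc53-1 at 37 °C; 2-3 technical replicates each.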
# 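Note: PSI is a weighted mean of sequencing reads over stability bins, variants kept only with over 10 reads, mCherry proximal and sfGFP distal, peptide attached via GGGS linker.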
row,Sequence,protein stability index
1,RIYIRVSLIAPR,0.537 ± 0.017
2,RLFMVLYRRFVL,0.608 ± 0.016
3,RLVWGGLEMFVC,0.21 ± 0.0073
4,RPALVSIFLSAY,0.532 ± 0.0076
5,RPLRRPRLPLLL,0.581 ± 0.01
6,RQFRNPLYAFVC,0.187 ± 0.035
7,RQRQLAKKQKNA,0.306 ± 0.038
8,RRFKINKKNKKF,0.524 ± 0.12
9,RRWGFRSFLVGI,0.7579 ± 0.0061
10,RSGGVPGFGRLC,0.723 ± 0.037
11,RSLRLFGCLGSL,0.753 ± 0.016
12,RSWMRHVLRVAS,0.154 ± 0.013
13,RVDEVVKKLRTL,0.17 ± 0.025
14,RVHYELEQIVIK,0.62 ± 0.064
15,RVSVNDGRRDSV,0.707 ± 0.022
16,RWFPPPQYLRLV,0.397 ± 0.024
17,RYEKIIKQINKQ,0.429 ± 0.011
18,RYSVIRWMLIVC,0.0441 ± 0.0061
19,SALLLWAISIIC,0.185 ± 0.011
20,SCDMIVTLIQIR,0.527 ± 0.0017

row,Sequence,protein stability index
1,SCICTSCLVLVL,0.5334 ± 0.0046
2,SCPEFNIRVRNG,0.409 ± 0.045
3,SCSHYRLICSRL,0.7975 ± 0.0065
4,SDVHLKSEALAA,0.663 ± 0.024
5,SFFLIISFFVRV,0.336 ± 0.013
6,SFFSFLLLRVPC,0.288 ± 0.043
7,SFGSMIITYAWG,0.637 ± 0.026
8,SFWLGVGIFFVG,0.559 ± 0.015
9,SFYVWILLWSYY,0.323 ± 0.014
10,SGGRFVLFIIAV,0.535 ± 0.0051
11,SGVHWFRGNSWG,0.716 ± 0.036
12,SHGKDVLNKINS,0.23 ± 0.036
13,SHTRPPVTAPLH,0.695 ± 0.0075
14,SIFSIFFLVRNF,0.195 ± 0.028
15,SIFSIRRQISFS,0.5729 ± 0.0022
16,SILVLGRSVGVG,0.49 ± 0.018
17,SIQMNCILLLVI,0.299 ± 0.028
18,SKPFPRHIFSLH,0.644 ± 0.012
19,SLCWSYVWVSCP,0.343 ± 0.0047
20,SLFERLSPVLCF,0.30185 ± 0.00011

row,Sequence,protein stability index
1,SLFVLLVSALLH,0.328 ± 0.011
2,SLGRYVSFLFVV,0.153 ± 0.019
3,SLLSELILVGVS,0.4308 ± 0.0017
4,SLLWLYSAFVWY,0.386 ± 0.069
5,SLRCILISTRVK,0.531 ± 0.018
6,SLVFCYSLFVFI,0.444 ± 0.028
7,SLYSFRCFFVLF,0.235 ± 0.0058
8,SPKFMCSLSCWW,0.744 ± 0.021
9,SPLLLIIFRSLC,0.183 ± 0.019
10,SREPPTSTSSRH,0.679 ± 0.0072
11,SRFPARCLLCCW,0.546 ± 0.007
12,SRMIPSAFLLVI,0.513 ± 0.011
13,SSAQKVMELQIV,0.467 ± 0.035
14,SSLGILHWRLHS,0.259 ± 0.027
15,SVAWFIYVARSI,0.5224 ± 0.0022
16,SVCCSLLAVASP,0.29 ± 0.0066
17,SVFFALFLRCTP,0.405 ± 0.02
18,SVGVVWVLSVEG,0.503 ± 0.0036
19,SVTFVVYFISGG,0.548 ± 0.0076
20,SWAILFVLEGFK,0.5837 ± 0.004

# System: Saccharomyces cerevisiae
# Experiment: as above
# Settings: genetic background: wild type; temperature: 30 C
row,Sequence,protein stability index
1,RIYIRVSLIAPR,0.509 ± 0.14
2,RLFMVLYRRFVL,0.491 ± 0.069
3,RLVWGGLEMFVC,0.235 ± 0.043
4,RPALVSIFLSAY,0.444 ± 0.027
5,RPLRRPRLPLLL,0.4634 ± 0.0032
6,RQFRNPLYAFVC,0.193 ± 0.021
7,RQRQLAKKQKNA,0.322 ± 0.016
8,RRFKINKKNKKF,0.339 ± 0.052
9,RRWGFRSFLVGI,0.7307 ± 0.0056
10,RSGGVPGFGRLC,0.745 ± 0.014
11,RSLRLFGCLGSL,0.7185 ± 0.0059
12,RSWMRHVLRVAS,0.194 ± 0.004
13,RVDEVVKKLRTL,0.195 ± 0.043
14,RVHYELEQIVIK,0.518 ± 0.089
15,RVSVNDGRRDSV,0.557 ± 0.18
16,RWFPPPQYLRLV,0.288 ± 0.011
17,RYEKIIKQINKQ,0.268 ± 0.044
18,RYSVIRWMLIVC,0.051 ± 0.013
19,SALLLWAISIIC,0.22 ± 0.015
20,SCDMIVTLIQIR,0.409 ± 0.027

row,Sequence,protein stability index
1,SCICTSCLVLVL,0.368 ± 0.049
2,SCPEFNIRVRNG,0.297 ± 0.11
3,SCSHYRLICSRL,0.598 ± 0.25
4,SDVHLKSEALAA,0.542 ± 0.11
5,SFFLIISFFVRV,0.338 ± 0.066
6,SFFSFLLLRVPC,0.308 ± 0.03
7,SFGSMIITYAWG,0.473 ± 0.034
8,SFWLGVGIFFVG,0.481 ± 0.021
9,SFYVWILLWSYY,0.294 ± 0.021
10,SGGRFVLFIIAV,0.42491 ± 0.00036
11,SGVHWFRGNSWG,0.712 ± 0.0087
12,SHGKDVLNKINS,0.319 ± 0.077
13,SHTRPPVTAPLH,0.7165 ± 0.0055
14,SIFSIFFLVRNF,0.217 ± 0.0043
15,SIFSIRRQISFS,0.418 ± 0.015
16,SILVLGRSVGVG,0.519 ± 0.07
17,SIQMNCILLLVI,0.298 ± 0.058
18,SKPFPRHIFSLH,0.503 ± 0.046
19,SLCWSYVWVSCP,0.334 ± 0.018
20,SLFERLSPVLCF,0.308 ± 0.011

row,Sequence,protein stability index
1,SLFVLLVSALLH,0.345 ± 0.02
2,SLGRYVSFLFVV,0.202 ± 0.004
3,SLLSELILVGVS,0.406 ± 0.021
4,SLLWLYSAFVWY,0.324 ± 0.05
5,SLRCILISTRVK,0.437 ± 0.087
6,SLVFCYSLFVFI,0.402 ± 0.017
7,SLYSFRCFFVLF,0.263 ± 0.032
8,SPKFMCSLSCWW,0.732 ± 0.011
9,SPLLLIIFRSLC,0.18 ± 0.038
10,SREPPTSTSSRH,0.519 ± 0.13
11,SRFPARCLLCCW,0.501 ± 0.031
12,SRMIPSAFLLVI,0.442 ± 0.01
13,SSAQKVMELQIV,0.404 ± 0.011
14,SSLGILHWRLHS,0.224 ± 0.0078
15,SVAWFIYVARSI,0.471 ± 0.038
16,SVCCSLLAVASP,0.3666 ± 0.0026
17,SVFFALFLRCTP,0.359 ± 0.05
18,SVGVVWVLSVEG,0.454 ± 0.0074
19,SVTFVVYFISGG,0.513 ± 0.039
20,SWAILFVLEGFK,0.477 ± 0.067
